In paper PMC12141489 (Scientific Reports, 2025) one finds binding result, Kd and koff data, which are given here for two molecules.

Where no end group is shown, it is not given here. The star is where a group is joined. Biotin = O=C1N[C@H]2[C@H](CS[C@H]2CCCCC(=O)*)N1

Experiment [1] has as its target myc-tagged human TRPM4 on HEK 293 cells (Homo sapiens, UniProt Q8TD43). The experiment in a line: immunostaining of cells or tissue.
Experiment [2] addresses Ab4 (humanized antibody) (human). Description: SPR.
For experiment [3], the target named is Ab2 (humanized antibody) (human). The experiment in a line: SPR.

myc-tagged human TRPM4 on HEK 293 cells, sequence (Q8TD43 whole entry): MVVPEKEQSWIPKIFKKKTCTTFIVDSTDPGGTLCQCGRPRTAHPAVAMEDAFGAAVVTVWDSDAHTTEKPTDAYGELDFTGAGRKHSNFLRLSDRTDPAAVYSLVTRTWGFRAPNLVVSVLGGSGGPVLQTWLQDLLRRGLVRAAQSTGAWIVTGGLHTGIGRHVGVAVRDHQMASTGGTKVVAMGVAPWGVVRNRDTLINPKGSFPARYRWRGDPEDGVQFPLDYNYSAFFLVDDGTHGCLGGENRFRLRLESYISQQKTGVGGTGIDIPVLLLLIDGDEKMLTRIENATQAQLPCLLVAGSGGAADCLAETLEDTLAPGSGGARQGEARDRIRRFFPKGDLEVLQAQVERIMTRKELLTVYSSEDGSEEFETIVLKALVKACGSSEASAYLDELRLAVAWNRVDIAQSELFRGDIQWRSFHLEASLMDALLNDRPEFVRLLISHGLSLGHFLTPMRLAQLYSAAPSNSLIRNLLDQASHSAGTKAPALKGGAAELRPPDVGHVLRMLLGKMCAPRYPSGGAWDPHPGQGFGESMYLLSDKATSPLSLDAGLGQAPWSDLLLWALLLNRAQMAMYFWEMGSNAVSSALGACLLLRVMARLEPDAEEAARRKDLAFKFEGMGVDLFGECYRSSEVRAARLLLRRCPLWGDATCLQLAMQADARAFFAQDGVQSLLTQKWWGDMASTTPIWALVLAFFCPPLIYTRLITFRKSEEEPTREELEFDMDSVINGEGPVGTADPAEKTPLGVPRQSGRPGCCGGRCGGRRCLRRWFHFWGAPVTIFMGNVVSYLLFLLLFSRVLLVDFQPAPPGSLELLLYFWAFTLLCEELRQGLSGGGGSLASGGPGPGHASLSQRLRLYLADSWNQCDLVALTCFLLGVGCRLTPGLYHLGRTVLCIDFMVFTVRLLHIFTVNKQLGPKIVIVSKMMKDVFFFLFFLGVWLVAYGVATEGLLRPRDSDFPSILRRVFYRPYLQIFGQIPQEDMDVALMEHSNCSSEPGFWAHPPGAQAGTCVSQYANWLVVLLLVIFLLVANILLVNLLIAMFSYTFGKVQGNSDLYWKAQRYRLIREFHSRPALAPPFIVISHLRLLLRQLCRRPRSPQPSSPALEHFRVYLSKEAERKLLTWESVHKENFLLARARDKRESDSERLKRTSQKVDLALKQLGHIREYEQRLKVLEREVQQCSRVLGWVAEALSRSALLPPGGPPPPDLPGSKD

B1: Ab1 (chimeric antibody) (antibody, V domains shown)
VH: QVQLQESGPGLVKPSQSLSLTCTVTGYSITSDYAWNWIRQFPGNKLQWMGYLSYSGVTSYNPSLKGRISITRDTSKNQFFLQLSSVTPEDTATYYCARKGTYYRYEGSYWYFDVWGAGTTVTVSS
VL: DIQMNQSPSSLSASLGDTITITCHANQNIDVWLSWYQQKPGNVPKLLIYKTSNLHTGVPSRFSGSGSGTDFTLTISSLQPEDIATYYCQQGQSYPLTFGGGTKLEIK
As to B1, the binding result in experiment [1] was “binds”.
RDSDSNCSSEPGFWAHPPGAQK(Biotin) [Peptide-biotin (…{Lys(biotin)})]: the Kd in experiment [2] is 7 nM. In experiment [3], the off-rate (koff) was determined as 0.00166 s⁻¹.

As a reminder, the Kd is the constant that tells how readily two partners part at equilibrium. Low values mean tighter binding, high ones weaker binding. In general, koff refers to a measure of how fast the partners let go of each other. A higher koff goes with fast dissociation.
